This data set concerns the target T1, TRF1 (recombinant, in-house purified) (UniProt P54274).
T1 sequence: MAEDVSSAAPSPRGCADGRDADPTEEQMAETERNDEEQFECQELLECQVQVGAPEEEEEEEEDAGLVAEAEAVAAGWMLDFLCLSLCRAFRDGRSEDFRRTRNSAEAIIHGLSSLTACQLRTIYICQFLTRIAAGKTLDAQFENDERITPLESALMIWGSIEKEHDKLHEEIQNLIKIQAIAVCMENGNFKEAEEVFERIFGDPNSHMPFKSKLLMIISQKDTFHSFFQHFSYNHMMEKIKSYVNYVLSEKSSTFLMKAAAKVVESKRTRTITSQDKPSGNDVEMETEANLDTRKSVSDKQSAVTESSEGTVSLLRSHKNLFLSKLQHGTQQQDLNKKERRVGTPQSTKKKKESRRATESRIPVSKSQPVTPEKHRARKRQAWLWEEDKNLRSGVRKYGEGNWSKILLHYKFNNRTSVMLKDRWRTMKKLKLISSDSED
As to the kind of experiment: EMSA. The following applies: 2 mM Mg2+, 50 mM Tris-Cl pH 8.0, 2 mM MgCl2, 150 mM KCl, 0.5 mM DTT, 10% glycerol, 5 nM oligonucleotide, 30 min room temperature, 1% agarose gel in 1x TBE at 4 C.

Here are results for 3 sequences from article PMC11992676.

On to “GACCATGCTTAGGGTTAGGGTTAGGGTTAGGGTTATCATACAA (double strand) [TelDNA]”, for which, under “scale: fold”, the binding signal is 1.

For the sequence “GACCATGCTTATCCCCATTTGTATTATCCCCATTTCATACAAA (double strand) [Non-TelDNA]”, the binding signal (fold lower binding than TelDNA) turned out to be 5.

As to “GACCAUGCUUAGGGUUAGGGUUAGGGUUAGGGUUAUCAUACAA / TTGTATGATAACCCTAACCCTAACCCTAACCCTAAGCATGGTC [Telomeric DNA:RNA hybrid]”, for the setting “strand 1 is RNA, strand 2 is DNA”, the binding signal (fold lower affinity than TelDNA) is 7.
